Test system: YB-1
Assay: EMSA
Settings: serial-diluted protein; RNA-EMSA in Thermo Scientific kit binding buffer, 6% polyacrylamide gel; salt, pH and temperature not stated

Q: How did the Kd turn out when H19 RNA fragment 661-745 (85 nt) was run?
A: 7.4 µM
